T1: fibulin-5 (UniProt Q9UBX5 24-448)
T1 construct: fibulin-5, recombinant
T1 sequence (looked up): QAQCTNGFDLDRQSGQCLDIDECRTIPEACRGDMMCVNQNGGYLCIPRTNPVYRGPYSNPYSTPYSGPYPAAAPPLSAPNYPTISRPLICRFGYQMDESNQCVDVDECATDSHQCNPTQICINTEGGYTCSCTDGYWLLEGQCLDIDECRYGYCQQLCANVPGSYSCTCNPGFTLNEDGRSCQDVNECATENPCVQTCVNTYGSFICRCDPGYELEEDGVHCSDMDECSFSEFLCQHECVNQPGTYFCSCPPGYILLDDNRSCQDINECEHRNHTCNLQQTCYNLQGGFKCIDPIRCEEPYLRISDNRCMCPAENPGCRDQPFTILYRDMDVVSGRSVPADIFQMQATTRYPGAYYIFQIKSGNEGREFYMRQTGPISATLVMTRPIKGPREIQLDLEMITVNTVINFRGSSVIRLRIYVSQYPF

T2: fibulin-4 (UniProt O95967 24-443)
T2 construct: fibulin-4, recombinant
T2 sequence (looked up): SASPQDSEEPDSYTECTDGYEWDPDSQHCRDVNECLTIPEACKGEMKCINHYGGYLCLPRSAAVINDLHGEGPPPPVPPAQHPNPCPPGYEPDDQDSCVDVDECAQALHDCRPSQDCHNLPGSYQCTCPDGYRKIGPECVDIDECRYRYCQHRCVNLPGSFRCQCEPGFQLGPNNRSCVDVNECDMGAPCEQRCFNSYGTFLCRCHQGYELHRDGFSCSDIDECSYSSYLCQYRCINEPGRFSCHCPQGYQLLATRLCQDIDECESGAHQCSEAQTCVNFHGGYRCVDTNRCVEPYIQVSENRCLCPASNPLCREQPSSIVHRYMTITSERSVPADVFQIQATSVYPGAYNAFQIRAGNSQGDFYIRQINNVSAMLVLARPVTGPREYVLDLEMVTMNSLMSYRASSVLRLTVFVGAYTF

T3: recombinant human tropoelastin (human, UniProt P15502 27-786)
T3 construct: human tropoelastin, recombinant; source: bought: Elastagen
T3 sequence (looked up): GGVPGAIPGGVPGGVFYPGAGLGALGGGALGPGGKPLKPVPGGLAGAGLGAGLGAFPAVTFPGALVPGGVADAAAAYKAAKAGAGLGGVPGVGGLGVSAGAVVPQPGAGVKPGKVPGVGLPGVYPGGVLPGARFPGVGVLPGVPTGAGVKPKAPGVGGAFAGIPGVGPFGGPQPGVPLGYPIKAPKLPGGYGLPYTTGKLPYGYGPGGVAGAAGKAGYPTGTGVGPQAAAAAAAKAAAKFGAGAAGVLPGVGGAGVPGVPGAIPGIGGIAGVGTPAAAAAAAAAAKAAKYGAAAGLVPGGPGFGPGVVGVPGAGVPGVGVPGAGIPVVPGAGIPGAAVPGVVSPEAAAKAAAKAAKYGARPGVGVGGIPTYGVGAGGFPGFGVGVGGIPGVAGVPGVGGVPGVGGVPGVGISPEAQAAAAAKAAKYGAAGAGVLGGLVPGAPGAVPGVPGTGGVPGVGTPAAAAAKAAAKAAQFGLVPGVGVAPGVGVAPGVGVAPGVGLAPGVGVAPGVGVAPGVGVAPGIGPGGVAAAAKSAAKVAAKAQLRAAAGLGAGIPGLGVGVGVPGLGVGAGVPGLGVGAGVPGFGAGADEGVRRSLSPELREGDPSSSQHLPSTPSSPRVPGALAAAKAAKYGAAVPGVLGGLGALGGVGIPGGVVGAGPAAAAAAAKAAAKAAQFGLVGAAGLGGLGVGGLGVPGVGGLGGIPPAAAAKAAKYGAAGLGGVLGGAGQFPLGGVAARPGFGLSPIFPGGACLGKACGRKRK

B1: Microfibril-associated glycoprotein 4 (natural protein, human, UniProt P55083 22-255, looked up)
chain: VSGIRGDALERFCLQQPLDCDDIYAQGYQSDGVYLIYPSGPSVPVPVFCDMTTEGGKWTVFQKRFNGSVSFFRGWNDYKLGFGRADGEYWLGLQNMHLLTLKQKYELRVDLEDFENNTAYAKYADFSISPNAVSAEEDGYTLFVAGFEDGGAGDSLSYHSGQKFSTFDRDQDLFVQNCAALSSGAFWFRSCHFANLNGFYLGGSHLSYANGINWAQWKGFYYSLKRTEMKIRRA
modifications: intermolecular disulphide bond between C34 of two monomers; N-glycosylated at N87 and N137 (cryo-EM density)
notes: signal peptide in the construct; Q21 is the first residue after signal peptide cleavage; Octamer (8 copies) in TBS with 2 mM Ca2+; tetramer (4 copies) after Ca2+ depletion with EDTA or EGTA; also called MFAP4; source: HEK293 EBNA cells, transfected (pCEP4-MFAP4), conditioned medium, purified by nickel chelating chromatography

What was measured:
[1] = molecular target: B1; assay: SPR; Ca2+ form (octamer): MFAP4 or MFAP4_(C34S) amine-coupled on CM5 (Biacore X), elastogenic proteins as analytes 5-100 µg/mL in TBS/Ca2+ (2 mM CaCl2); 1:1 Langmuir fit, KD is the average over five concentrations; settings: both partners purified
fibulin-5 = molecular target: T1, fibulin-5; assay: as above; settings: both partners purified
[2] = molecular target: T4, latent transforming growth factor beta binding protein-4, long isoform (UniProt Q8N2S1-1 28-1624); assay: as above; settings: both partners purified
T4 construct: LTBP4, long isoform (LTBP4L); also called LTBP4L

fibulin-4 = molecular target: T2, fibulin-4; assay: as above; settings: both partners purified
[3] = molecular target: T3, recombinant human tropoelastin; assay: as above; settings: both partners purified
[4] = molecular target: the molecule itself; assay: SPR; self-interaction of octamers; Biacore X, CM5 chip, MFAP4 or MFAP4_(C34S) amine-coupled (300-500 RU), same protein as analyte 5-100 µg/mL in TBS/Ca2+ (50 mM Tris-HCl pH 7.4, 150 mM NaCl, 2 mM CaCl2); 1:1 Langmuir fit, KD is the average over five concentrations
[5] = molecular target: the molecule itself; assay: dynamic light scattering; TBS/Ca2+ (2 mM); mass from hydrodynamic radius by calibration with standard proteins, globular model; monomers to octamer
[6] = molecular target: the molecule itself; assay: SDS-PAGE; non-reducing, 10% gel, Coomassie stain; disulphide-linked dimer
[7] = molecular target: the molecule itself; assay: cryo-EM structure; MFAP4 after Ca2+ depletion with 5 mM EDTA; single particle analysis, C2 symmetry; tetramer
[8] = molecular target: the molecule itself; assay: atomic force microscopy; MFAP4 or MFAP4_(C34S) Ca2+-depleted (5 mM EDTA); particle heights on mica, tapping mode in air

T4 sequence (Q8N2S1 28-1624): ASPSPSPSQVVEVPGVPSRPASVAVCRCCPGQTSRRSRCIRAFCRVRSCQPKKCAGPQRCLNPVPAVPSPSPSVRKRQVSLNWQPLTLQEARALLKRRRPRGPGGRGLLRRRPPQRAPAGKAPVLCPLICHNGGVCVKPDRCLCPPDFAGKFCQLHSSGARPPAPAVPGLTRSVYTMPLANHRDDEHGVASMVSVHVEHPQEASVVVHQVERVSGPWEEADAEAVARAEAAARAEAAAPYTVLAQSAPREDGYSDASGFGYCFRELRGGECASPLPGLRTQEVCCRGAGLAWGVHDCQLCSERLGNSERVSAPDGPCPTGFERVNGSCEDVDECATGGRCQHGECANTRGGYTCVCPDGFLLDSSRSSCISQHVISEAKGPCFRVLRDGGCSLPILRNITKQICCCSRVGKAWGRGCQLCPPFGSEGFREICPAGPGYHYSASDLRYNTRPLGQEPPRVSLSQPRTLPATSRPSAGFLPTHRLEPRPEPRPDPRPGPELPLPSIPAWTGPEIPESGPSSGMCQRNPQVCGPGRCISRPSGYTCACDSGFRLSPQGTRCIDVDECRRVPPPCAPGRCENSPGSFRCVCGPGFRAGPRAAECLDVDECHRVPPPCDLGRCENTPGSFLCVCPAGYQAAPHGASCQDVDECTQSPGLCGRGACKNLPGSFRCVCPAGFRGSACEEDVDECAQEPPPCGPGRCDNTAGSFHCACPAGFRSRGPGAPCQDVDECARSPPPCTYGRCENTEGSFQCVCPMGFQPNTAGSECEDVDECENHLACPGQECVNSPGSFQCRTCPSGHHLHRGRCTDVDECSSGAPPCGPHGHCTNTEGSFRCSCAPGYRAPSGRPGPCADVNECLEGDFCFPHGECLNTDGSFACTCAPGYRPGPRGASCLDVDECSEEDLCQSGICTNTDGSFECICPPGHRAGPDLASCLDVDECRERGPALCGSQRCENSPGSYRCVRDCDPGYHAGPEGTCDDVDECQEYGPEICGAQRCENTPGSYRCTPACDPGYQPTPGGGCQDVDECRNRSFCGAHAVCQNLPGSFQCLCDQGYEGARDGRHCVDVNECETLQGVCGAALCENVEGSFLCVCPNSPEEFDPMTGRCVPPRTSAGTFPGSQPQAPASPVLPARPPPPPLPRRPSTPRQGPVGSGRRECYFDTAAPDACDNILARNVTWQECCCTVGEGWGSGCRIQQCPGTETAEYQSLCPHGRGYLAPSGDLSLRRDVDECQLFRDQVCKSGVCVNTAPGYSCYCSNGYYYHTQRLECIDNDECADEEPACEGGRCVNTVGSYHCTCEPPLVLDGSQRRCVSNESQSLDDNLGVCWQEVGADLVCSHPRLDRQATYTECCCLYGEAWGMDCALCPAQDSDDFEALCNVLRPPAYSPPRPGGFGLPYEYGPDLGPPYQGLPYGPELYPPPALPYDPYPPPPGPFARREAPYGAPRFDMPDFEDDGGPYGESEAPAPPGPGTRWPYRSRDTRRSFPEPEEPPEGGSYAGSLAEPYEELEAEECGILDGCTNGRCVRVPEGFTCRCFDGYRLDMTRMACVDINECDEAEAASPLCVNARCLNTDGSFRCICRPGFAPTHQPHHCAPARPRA

Row | Binder | Kd [1] [nM] | Kd (fibulin-5) [nM] | Kd [2] [nM] | Kd (fibulin-4) [nM] | Kd [3] [nM] | Kd [4] [nM] | stoichiometry N [5] | stoichiometry N [6] | stoichiometry N [7] | stoichiometry N [8]
1 | fibrillin-1 centre region fragment rF1M (domain or fragment) not shown | 1.2 |  |  |  |  |  |  |  |  | 
2 | B1 |  | 357 | 18 | 110 | 45 | 6.2 | 8 | 2 | 4 | 
3 | MFAP4_(C34S) (natural protein, human, UniProt P55083 22-255, looked up, signal peptide in the construct; human MFAP4, M1KAL...IRRA255 with C34S; Q21 is the first residue after signal peptide cleavage; Octamer in TBS with Ca2+; tetramer after Ca2+ depletion; No intermolecular disulphide bond; also called MFAP_(C34S); source: HEK293 EBNA cells, transfected (pCEP4-MFAP4_(C34S)), conditioned medium, purified by nickel chelating chromatography) VSGIRGDALERFSLQQPLDCDDIYAQGYQSDGVYLIYPSGPSVPVPVFCDMTTEGGKWTVFQKRFNGSVSFFRGWNDYKLGFGRADGEYWLGLQNMHLLTLKQKYELRVDLEDFENNTAYAKYADFSISPNAVSAEEDGYTLFVAGFEDGGAGDSLSYHSGQKFSTFDRDQDLFVQNCAALSSGAFWFRSCHFANLNGFYLGGSHLSYANGINWAQWKGFYYSLKRTEMKIRRA |  |  |  |  |  | 5.8 | 8 |  |  | 4

Source: article PMC11091212, “Microfibril-associated glycoprotein 4 forms octamers that mediate interactions with elastogenic proteins and cells” (Nature Communications, 2024)
